Data as given in publication PMC4838544 (Gene, 2016).

Target: T1, E. coli topoisomerase I with a N-terminus 6x-His tag (E. coli, UniProt P06612 1-865)
T1 sequence (looked up): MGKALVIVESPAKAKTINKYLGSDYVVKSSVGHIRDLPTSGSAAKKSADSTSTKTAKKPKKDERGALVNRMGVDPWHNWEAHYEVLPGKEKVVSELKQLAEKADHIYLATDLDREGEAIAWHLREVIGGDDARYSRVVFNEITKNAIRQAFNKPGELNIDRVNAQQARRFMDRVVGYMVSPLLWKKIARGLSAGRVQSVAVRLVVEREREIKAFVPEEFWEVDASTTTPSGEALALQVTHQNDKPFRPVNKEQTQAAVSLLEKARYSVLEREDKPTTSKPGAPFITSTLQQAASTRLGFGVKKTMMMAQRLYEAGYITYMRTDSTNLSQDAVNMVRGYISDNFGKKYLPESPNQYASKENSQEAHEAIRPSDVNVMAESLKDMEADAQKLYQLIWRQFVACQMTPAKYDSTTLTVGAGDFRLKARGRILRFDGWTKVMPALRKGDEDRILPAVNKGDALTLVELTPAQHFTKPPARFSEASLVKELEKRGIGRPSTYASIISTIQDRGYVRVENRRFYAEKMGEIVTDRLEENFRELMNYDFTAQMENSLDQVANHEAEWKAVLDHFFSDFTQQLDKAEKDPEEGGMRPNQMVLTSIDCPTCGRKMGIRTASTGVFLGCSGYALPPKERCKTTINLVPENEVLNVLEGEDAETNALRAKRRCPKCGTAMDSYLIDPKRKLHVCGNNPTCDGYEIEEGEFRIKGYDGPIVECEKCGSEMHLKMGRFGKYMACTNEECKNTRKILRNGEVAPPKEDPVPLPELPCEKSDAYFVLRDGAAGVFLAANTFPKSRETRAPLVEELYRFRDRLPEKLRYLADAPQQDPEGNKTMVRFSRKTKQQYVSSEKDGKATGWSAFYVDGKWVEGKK
Assay: pull-down

B1: Purified E. coli RecA (natural protein)
chain: AIDENKQKALAAALGQIEKQFGKGSIMRLGEDRSMDVETISTGSLSLDIALGAGGLPMGRIVEIYGPESSGKTTLTLQVIAAAQREGKTCAFIDAEHALDPIYARKLGVDIDNLLCSQPDTGEQALEICDALARSGAVDVIVVDSVAALTPKAEIEGEIGDSHMGLAARMMSQAMRKLAGNLKQSNTLLIFINQIRMKIGVMFGNPETTTGGNALKFYASVRLDIRRIGAVKEGENVVGSETRVKVVKNKIAAPFKQAEFQILYGEGINFYGELVDLGVKEKLIEKAGAWYSYKGEKIGQGKANATAWLKDNPETAKEIEKKVRELLLSNPNSTPDFSVDDSEGVAETNEDF
B1: binds.
